Test system: MutS (MBP-MutS-H6 fusion) (Thermus aquaticus)
Assay: pulldown
Conditions: MutS selectivity factor M estimated by model from consensus shuffling error rates; 20 mM Tris-HCl pH 7.8, 10 mM NaCl, 5 mM MgCl2, 1 mM DTT, 5% glycerol, room …

Substance: re-hybridized GFPuv fragments (average 150 bp) containing synthesis-error mismatches
- binding signal (fold selectivity): 2.2

— patent US7820412
